Assay results taken from publication doi:10.1101/398008.

Target: IMP3 KH1-2 WT (human, UniProt O00425 192-355)
Assay: ITC

Chain of IMP3 KH1-2 WT (O00425 192-355): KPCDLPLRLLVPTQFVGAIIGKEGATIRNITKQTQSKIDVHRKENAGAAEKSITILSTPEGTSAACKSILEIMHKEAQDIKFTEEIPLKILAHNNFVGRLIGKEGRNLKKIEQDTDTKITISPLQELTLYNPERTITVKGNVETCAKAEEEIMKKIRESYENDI

## AACACAAUUUUGGAGGAACUACAGAAUGCGGCUA (ssRNA) [34-mer]
  binding signal: ~10 fold higher affinity than 7-mer RNAs
